Reference: the supplement of paper PMC10724198
± gives the standard deviation of the averaged measurements.

Experiments:
Saccharomyces cerevisiae [1] = experiment: protein stability index of tFT-peptide fusion (C-terminal peptide) (PSI (0-1 scale)); higher = more stable (slower turnover)
Protocol: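 MPS profiling in S. cerevisiae of the tFT-X12 degron library: putative degron peptides plus stable controls, 12 aa, fused to the C-terminus of a sfGFP-mCherry timer. Cells are FACS-sorted into 8 mCherry/sfGFP bins and deep-sequenced. PSI runs from 0 (unstable) to 1 (stable). Backgrounds are wild type, das1Δ and doa10Δ at 30 °C, and wild type, das1Δ, cdc34-1 and cdc53-1 at 37 °C; 2-3 technical replicates each.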

Saccharomyces cerevisiae [2] = experiment: as above; details: genetic background: wild type; temperature: 30 C
[3] = genetic background: cdc34-1, temperature: 37 C
[4] = genetic background: cdc53-1, temperature: 37 C
[5] = genetic background: das1 deletion, temperature: 30 C
[6] = genetic background: das1 deletion, temperature: 37 C
[7] = genetic background: doa10 deletion, temperature: 30 C
[8] = genetic background: wild type, temperature: 30 C
[9] = genetic background: wild type, temperature: 37 C
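Note: PSI is a weighted mean of sequencing reads over stability bins, variants kept only with over 10 reads, mCherry proximal and sfGFP distal, peptide attached via GGGS linker.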

Sequence | protein stability index (Saccharomyces cerevisiae [1]; [3]) | protein stability index (Saccharomyces cerevisiae [1]; [4]) | protein stability index (Saccharomyces cerevisiae [1]; [5]) | protein stability index (Saccharomyces cerevisiae [1]; [6]) | protein stability index (Saccharomyces cerevisiae [1]; [7]) | protein stability index (Saccharomyces cerevisiae [1]; [8]) | protein stability index (Saccharomyces cerevisiae [1]; [9]) | protein stability index (Saccharomyces cerevisiae [2])
LAISTIQMFKRI | 0.677 ± 0.049 | 0.718 ± 0.04 | 0.624 ± 0.017 | 0.718 ± 0.018 | 0.295 ± 0.021 | 0.327 ± 0.022 | 0.568 ± 0.038 | 0.38 ± 0.019
LAKPTVRKIICV | 0.41 ± 0.0086 | 0.387 ± 0.025 | 0.301 ± 0.049 | 0.4672 ± 0.0038 | 0.263 ± 0.017 | 0.296 ± 0.04 | 0.421 ± 0.0089 | 0.419 ± 0.007
LAPSRNRSVWLV | 0.591 ± 0.015 | 0.7308 ± 0.002 | 0.649 ± 0.016 | 0.74 ± 0.0098 | 0.104 ± 0.012 | 0.119 ± 0.018 | 0.199 ± 0.0086 | 0.247 ± 0.036
LASFCSVCIFIS | 0.224 ± 0.0054 | 0.31 ± 0.014 | 0.238 ± 0.017 | 0.429 ± 0.0071 | 0.099 ± 0.0025 | 0.127 ± 0.033 | 0.17 ± 0.012 | 0.163 ± 0.029
LASWVVFIWFLW | 0.253 ± 0.026 | 0.348 ± 0.012 | 0.278 ± 0.018 | 0.41 ± 0.01 | 0.281 ± 0.031 | 0.25 ± 0.043 | 0.423 ± 0.041 | 0.329 ± 0.077
LCFLVALASMLF | 0.5426 ± 0.0019 | 0.579 ± 0.038 | 0.472 ± 0.036 | 0.549 ± 0.018 | 0.4385 ± 0.0032 | 0.462 ± 0.026 | 0.5246 ± 0.00074 | 0.504 ± 0.01
LCFVCLWGYLGV | 0.388 ± 0.023 | 0.471 ± 0.011 | 0.322 ± 0.034 | 0.528 ± 0.023 | 0.307 ± 0.0054 | 0.323 ± 0.022 | 0.4791 ± 0.0038 | 0.479 ± 0.044
LCFVFVLGFFAF | 0.379 ± 0.058 | 0.4836 ± 0.0019 | 0.349 ± 0.031 | 0.488 ± 0.0085 | 0.319 ± 0.011 | 0.334 ± 0.012 | 0.501 ± 0.022 | 0.421 ± 0.017
LCTCFLVLLLWC | 0.387 ± 0.032 | 0.404 ± 0.02 | 0.339 ± 0.024 | 0.46 ± 0.01 | 0.34 ± 0.01 | 0.315 ± 0.018 | 0.4407 ± 0.0027 | 0.337 ± 0.1
LCVFRFFLFFFL | 0.35 ± 0.012 | 0.371 ± 0.034 | 0.327 ± 0.032 | 0.461 ± 0.012 | 0.364 ± 0.019 | 0.291 ± 0.027 | 0.427 ± 0.016 | 0.402 ± 0.054
LDFPPLRLILRL | 0.601 ± 0.019 | 0.609 ± 0.0072 | 0.584 ± 0.035 | 0.6464 ± 0.0014 | 0.658 ± 0.017 | 0.538 ± 0.049 | 0.6071 ± 0.0026 | 0.538 ± 0.064
LEPFTGYTVIVM | 0.165 ± 0.045 | 0.185 ± 0.015 | 0.232 ± 0.045 | 0.331 ± 0.021 | 0.189 ± 0.0054 | 0.236 ± 0.034 | 0.261 ± 0.032 | 0.334 ± 0.048
LFDVLFVFSFIF | 0.4681 ± 0.0013 | 0.524 ± 0.006 | 0.413 ± 0.017 | 0.535 ± 0.015 | 0.432 ± 0.034 | 0.42 ± 0.024 | 0.503 ± 0.019 | 0.449 ± 0.045
LFFASFLLIGPF | 0.4091 ± 0.0033 | 0.4803 ± 0.003 | 0.375 ± 0.039 | 0.499 ± 0.014 | 0.354 ± 0.03 | 0.321 ± 0.037 | 0.483 ± 0.041 | 0.393 ± 0.0098
LFFFFLPHLILL | 0.3403 ± 0.00055 | 0.321 ± 0.041 | 0.321 ± 0.046 | 0.4803 ± 0.004 | 0.404 ± 0.058 | 0.26 ± 0.028 | 0.395 ± 0.011 | 0.377 ± 0.035
LFHPPSFSLRLF | 0.681 ± 0.038 | 0.738 ± 0.025 | 0.678 ± 0.019 | 0.748 ± 0.023 | 0.301 ± 0.038 | 0.348 ± 0.025 | 0.5619 ± 0.0044 | 0.528 ± 0.25
LFHVWSLRFFWL | 0.576 ± 0.039 | 0.669 ± 0.017 | 0.557 ± 0.018 | 0.6837 ± 0.0039 | 0.2583 ± 0.00064 | 0.282 ± 0.027 | 0.434 ± 0.015 | 0.391 ± 0.023
LFLFVGCSVRRL | 0.528 ± 0.023 | 0.58092 ± 0.00029 | 0.392 ± 0.034 | 0.599 ± 0.021 | 0.374 ± 0.0049 | 0.391 ± 0.014 | 0.5744 ± 0.0024 | 0.4951 ± 0.0047
LFLLYVLVSLFV | 0.288 ± 0.019 | 0.347 ± 0.064 | 0.267 ± 0.048 | 0.369 ± 0.019 | 0.222 ± 0.0045 | 0.251 ± 0.025 | 0.39 ± 0.052 | 0.281 ± 0.045
LFLVVVVRAGGF | 0.144 ± 0.042 | 0.288 ± 0.058 | 0.214 ± 0.03 | 0.4065 ± 0.0012 | 0.187 ± 0.0076 | 0.208 ± 0.022 | 0.382 ± 0.045 | 0.293 ± 0.0094

Sequence | protein stability index (Saccharomyces cerevisiae [1]; [3]) | protein stability index (Saccharomyces cerevisiae [1]; [4]) | protein stability index (Saccharomyces cerevisiae [1]; [5]) | protein stability index (Saccharomyces cerevisiae [1]; [6]) | protein stability index (Saccharomyces cerevisiae [1]; [7]) | protein stability index (Saccharomyces cerevisiae [1]; [8]) | protein stability index (Saccharomyces cerevisiae [1]; [9]) | protein stability index (Saccharomyces cerevisiae [2])
LFPVASLCLART | 0.643 ± 0.028 | 0.648 ± 0.048 | 0.527 ± 0.036 | 0.663 ± 0.0042 | 0.513 ± 0.022 | 0.524 ± 0.023 | 0.659 ± 0.057 | 0.529 ± 0.065
LFRFVFLLFGFW | 0.452 ± 0.019 | 0.428 ± 0.025 | 0.435 ± 0.015 | 0.566 ± 0.032 | 0.4885 ± 0.0013 | 0.423 ± 0.034 | 0.526 ± 0.026 | 0.446 ± 0.049
LFRNIFLFVFLI | 0.267 ± 0.029 | 0.229 ± 0.0072 | 0.362 ± 0.021 | 0.468 ± 0.012 | 0.334 ± 0.0071 | 0.241 ± 0.02 | 0.307 ± 0.016 | 0.306 ± 0.029
LFWTWVLVGVSV | 0.1462 ± 0.0014 | 0.176 ± 0.029 | 0.192 ± 0.022 | 0.283 ± 0.013 | 0.127 ± 0.0013 | 0.164 ± 0.015 | 0.263 ± 0.033 | 0.256 ± 0.028
LGATYSVQLYVS | 0.336 ± 0.044 | 0.577 ± 0.022 | 0.539 ± 0.038 | 0.621 ± 0.013 | 0.0746 ± 0.012 | 0.0832 ± 0.015 | 0.0856 ± 0.005 | 0.131 ± 0.0029
LGIPKLLCFVCT | 0.424 ± 0.011 | 0.432 ± 0.0061 | 0.304 ± 0.023 | 0.465 ± 0.02 | 0.248 ± 0.0065 | 0.29 ± 0.019 | 0.421 ± 0.017 | 0.386 ± 0.019
LGLCFFFYSLHS | 0.539 ± 0.064 | 0.58 ± 0.037 | 0.411 ± 0.041 | 0.586 ± 0.013 | 0.37 ± 0.0054 | 0.401 ± 0.016 | 0.599 ± 0.057 | 0.462 ± 0.0096
LGNVTDVMHRLS | 0.645 ± 0.038 | 0.739 ± 0.0094 | 0.6481 ± 0.0036 | 0.734 ± 0.023 | 0.328 ± 0.0097 | 0.379 ± 0.012 | 0.617 ± 0.012 | 0.48 ± 0.0083
LGVVLFCFRFCR | 0.464 ± 0.0074 | 0.556 ± 0.028 | 0.391 ± 0.022 | 0.598 ± 0.022 | 0.353 ± 0.0068 | 0.371 ± 0.027 | 0.543 ± 0.019 | 0.477 ± 0.005
LHFHIYLIISPF | 0.117 ± 0.0026 | 0.137 ± 0.022 | 0.2 ± 0.02 | 0.311 ± 0.0072 | 0.238 ± 0.011 | 0.186 ± 0.034 | 0.261 ± 0.01 | 0.294 ± 0.012
LHLLFLPFVVCL | 0.212 ± 0.017 | 0.2458 ± 0.0015 | 0.216 ± 0.037 | 0.348 ± 0.027 | 0.0556 ± 0.012 | 0.0711 ± 0.025 | 0.113 ± 0.014 | 0.108 ± 0.02
LIFFFCSWVFRF | 0.3037 ± 0.00048 | 0.291 ± 0.032 | 0.402 ± 0.061 | 0.464 ± 0.031 | 0.327 ± 0.044 | 0.272 ± 0.038 | 0.365 ± 0.0071 | 0.377 ± 0.012
LIFLSISFISSL | 0.1 ± 0.0059 | 0.245 ± 0.049 | 0.168 ± 0.036 | 0.316 ± 0.028 | 0.104 ± 0.043 | 0.15 ± 0.037 | 0.286 ± 0.0096 | 0.295 ± 0.05
LILFMLLSFLTT | 0.371 ± 0.013 | 0.409 ± 0.042 | 0.294 ± 0.028 | 0.419 ± 0.018 | 0.281 ± 0.016 | 0.293 ± 0.025 | 0.3954 ± 0.0026 | 0.373 ± 0.032
LIRVLRVLRHSS | 0.607 ± 0.015 | 0.6917 ± 0.0043 | 0.638 ± 0.018 | 0.7225 ± 0.0011 | 0.167 ± 0.0097 | 0.194 ± 0.021 | 0.382 ± 0.045 | 0.375 ± 0.056
LLAVIVWIVPPA | 0.241 ± 0.01 | 0.35 ± 0.0085 | 0.233 ± 0.023 | 0.423 ± 0.0079 | 0.204 ± 0.0016 | 0.222 ± 0.028 | 0.39 ± 0.0093 | 0.304 ± 0.042
LLCRVSRTRILC | 0.478 ± 0.026 | 0.533 ± 0.0097 | 0.426 ± 0.021 | 0.58 ± 0.0099 | 0.104 ± 0.012 | 0.128 ± 0.013 | 0.166 ± 0.022 | 0.227 ± 0.013
LLDIYFILLVWF | 0.263 ± 0.02 | 0.237 ± 0.03 | 0.267 ± 0.023 | 0.399 ± 0.024 | 0.359 ± 0.021 | 0.258 ± 0.019 | 0.432 ± 0.066 | 0.346 ± 0.29
LLFLWVLFLPFA | 0.4449 ± 0.00067 | 0.469 ± 0.005 | 0.346 ± 0.036 | 0.5234 ± 0.0037 | 0.361 ± 0.012 | 0.342 ± 0.026 | 0.472 ± 0.0041 | 0.363 ± 0.045
